Test results as given in the DeepSol protein solubility set.

assay: soluble on expression in E. coli; label from the status in PepcDB or PDB records

**Q.** Which “soluble on expression in E. coli” value does the source give for “MGSDKIHHHHHHMISQFIDRKRELAILEREWKNTPSFVVIYGRRRVGKTRLLVEFSKGKKVFFYTFMEGTKESQVKSLAKELVDFFNDEIFLSFSDWYPLFKYLSGKLMEKTLFVFDEFTYAVKSDRSILSALQRVWDHELSYKPVMLVLSGSLMGIMEDNVLSHSSPLYGRRTAGFRLRSLGLFPSLRFFKSPIEGLKFYMLLGGIPAYLIIASRYETVGEFVEREFLTPEGYFYDEPYIVLSELKELKTYFSILSAMSSGRRRPSEIASEVGLEGRKIYPYLETLIRLGFVERELPIARKEKRGLYRISDPMLMSWFSLIYPNRTEIELGTITLERVEKILQRIFSFRFEDVSREFLVEMNKAGKLPFRFTKIGRWWYKGEEIDLVALNEDEEKALFIEVKWKDLKEREVKGILKDLEKKAGLVGLDGWDKNYGLIEKSIERKEKLREENYLVWDLKDFDALKILSQ” here?
**A.** not soluble

**Q.** With “MGSDKIHHHHHHMITISHITAKNMYKSLEERINKFPQGAPPSDTLYKILNVLYTEQEAKLVAQLPIKPFRVKTAAKIWSVSESEAYRVLDKLASKALILDIEDNKGKKYIMPPPMAGFFEFAMMRTRHDIDQKLLAELYYQYMNVEEDFIKDLFYSTETKLGRVYVQEEVLTNDNEVSILDYERATHIIDESTHIGISMCYCRHRMQHVGKACDAPMDICMTFDNVANSLINNKFARRVDKIECKELLHQAYEHNLVQCGENVRKGVTFICNCCGCCCEAMVAAKRFGNLHPVQTTSFIPNINHENCVKCGKCITACPIDAISKVKEDGKEYIKIDEDRCLGCGVCVRNCHKNSIMLLKRDEKIITPANSVHRAVLMAIEKGQLQNLIFDNNALASHRAMGAILSAILKLEPAKKILASKQLKSVYLDKLLSMNDK” as the sequence, how does the “soluble on expression in E. coli” value read?
**A.** not soluble

**Q.** For “MGSDKIHHHHHHMITPTIRGGHEVNYLVAVEGAKVGDAIAIRVERIRVLSKAASSGVDSPREGSFVGDPYVAKKCPVCNEPWPEFEVVGIGEDAIRCKKCGAPVSPFRMINGYTMVFDHEGGVGVTVDKKTAEMIAKNAWEWHALPKNSKQVPILIFAKADIVGVPSRIRPFLGQLGTIPAVDIPDSHNAGDFGYFLINAPHPYAISKEDYETKLTDGHLDVDSVREGAIVIAPVKVEGGGVYAGDAHAMEGDGEVAGHTTDVTAETTVTVEVIKGLNLEGPILLPPEEDLPPLAKPWRKDEWEKVERLAKKFGIEVEPVAPLQIIGSGPTINDAALNGFKRAAKLFGMSVEEVKNRVTITGAVEIGRLPGIVQVSMQVPLRILEKLGIYELVVKHYNLPF”, which “soluble on expression in E. coli” value is on record?
**A.** not soluble

**Q.** For “MGSDKIHHHHHHMITQQQIETVLGQIIDPTTGKDYLTSKAVSDIQIKQDNVSVNIELGYPAKSVLNTVHQQIEQAIRTVPGIGSITVNVTSNIIAHSAQRKLKLIPGVKNVIAVASGKGGVGKSATAVNLALALAAEGATVGILDADIYGPSQPQMLGVSGRPDSPDGKTIEPMQAHGIQMMSIGLLIDVETPMVWRGPMVTQALQQLLNDTRWHDLDYLVIDLPPGTGDIQLTLAQKIPVTGAVIVTTPQDIALLDARKGLKMFEKVGIPILGIVENMSLHTCSHCGHTEPIFGTGGGEKMCRDYNVELLGALPLDIRIREHTDAGKPSVVAEPDGQIADIYRTIARLVAAKISDMARDYSDVFTQIIMEDD”, which “soluble on expression in E. coli” value is on record?
**A.** not soluble

**Q.** Which “soluble on expression in E. coli” value does the source give for “MGSDKIHHHHHHMITTARPNVLWIMADQLRFDYLSCYGHPHLHTPHIDALAARGVRFTNAYVQSPVCGPSRMSAYTGRYVRSHGSTWNGMPLRVGEPTLGDHLREAGARAVLVGKTHMVADAEGMAWLGIDPKSEIGVSRSECGFEPFERDDGLHPDSPRQRWSAYDDYLVSHGYDSQNPWEDFANSGVDADGELLSAWLLKNSRLAANVPEEHSETAYMTDRAMAFMEEAEADGRPWMCHLSYIKPHWPYIVPAPYHDMYDESHIIDPVRSEAERDNAHPLVGAYQNSRVCRTFSRDQVRDHVIPAYMGLIKQLDDNLGRLFAWMDARGLSENTIIAFTSDHGDYMGDHWMGEKDFYHEMAVKVPMIIADPRPQADGTRGHVADDLVEMIDLAPTFMTALGAAPKPHIIEGRDLTPLLHGTDGFARQYVISEYDYHWSEMAAALQVPQEDAHTTMIFDGRWKYIRCERFDPVLFDLETDPQELVDLGTSPAHAEIRALMDAALLKWATQHHTRITATAAVLAGQKIAAETGILIGFWDEAEFEAATGFPFTDLTPQGPPK” here?
**A.** not soluble

**Q.** Which “soluble on expression in E. coli” value does the source give for “MGSDKIHHHHHHMIYIDKNESPVTPLDEKTMTSIISATPYNLYPDAAYEQFKEAYAKFYGLSPEQIIAGNGSDELIQKLMLIMPEGPALTLNPDFFMYQAYAAQVNREIAFVDAGSDLTFDLETILTKIDEVQPSFFIMSNPHNPSGKQFDTAFLTAIADKMKALNGYFVIDEAYLDYGTAYDVELAPHILRMRTLSKAFGIAGLRLGVLISTAGTIKHIQKIEHPYPLNVFTLNIATYIFRHREETRVFLTMQRQLAEQLKQIFDTHVADKMSVFPSNANFVLTKGSAAHQLGQYVYEQGFKPRFYDEPVMKGYVRYSIATASQLKQLEEIVKEWSAKYDLSKTTKHS” here?
**A.** not soluble

**Q.** With “MGSDKIHHHHHHMIYSVDKKDIEIGISACLIGEKVRFDASNKPSHFCIKEFSEHVSYKSFCPEVAVGLPIPRPTIRQIKRDDVIHVSQKDGSGDVTEALKAYGKKVASMTKSLSGYIFCAKSPSCGMERVKIYSPEGNSLPSKGIGAFAKEIMDANPLLPCEENGRLNDPLLRENFVARVFAYKHWQTIVESGLTKHKLTTFHSHYKYTVMSHDLIAYKELGQLLARADLPLDEVAAQYILGLMTALKIIATRKKHANTLAHIQGYFSKHLQANERQELCEQIDAYREGLIPLMAPLTLIKHYLLNHPKDYLTKQAYLSPYPDKLRLRYAY” as the sequence, how does the “soluble on expression in E. coli” value read?
**A.** not soluble

**Q.** For “MGSDKIHHHHHHMKASVIIPAYNSKERLYNSLLSLNQQECDEEFEVIVADNGSEDGTLSMLESFQADFPLIFTRIKENRGIAYGRNQALRNARGDILIFHDSDMLAAKDLVAKHIKAHENEENLVVCGLFWKRIYSFYYERFEEEHKEQLAKLTGEMPKKDKQKLLEEADIKNGSFLDKSFDLDTDFIDVLKKILDEYGDDLKGYHMPWRFFITNNSSVKRKHVVDLGLFDEGIVRYGFEDYDLGIRLHQAGLTFRLRRDIVSVHQEHPSNCKSVDDIRANIAYMCDKYNNIRSLDVHLAFNGPFPPDMTNRIMADIQKLLESQKYDMLLNLFLELLHVVKERNIDPDWRKKSPRVTAKSFDLQTVRKLLPKAKKKLGVNDFANALYALVNDLLHVDLRSLDVV”, which “soluble on expression in E. coli” value is on record?
**A.** not soluble

**Q.** Which “soluble on expression in E. coli” value does the source give for “MGSDKIHHHHHHMKAVRVHILGSGGREHAIGWAFAKQGYEVHFYPGNAGTKRDGTNHPYEGEKTLKAIPEEDIVIPGSEEFLVEGVSNWRSNVFGPVKEVARLEGSKVYAKRFMKKYGIRTARFEVAETPEELREKIKKFSPPYVIKADGLARGKGVLILDSKEETIEKGSKLIIGELIKGVKGPVVIDEFLAGNELSAMAVVNGRNFVILPFVRDYKRLMDGDRGPNTGGMGSWGPVEIPSDTIKKIEELFDKTLWGVEKEGYAYRGFLYLGLMLHDGDPYILEYNVRLGDPETEVIVTLNPEGFVNAVLEGYRGGKMEPVEPRGFAVDVVLAARGYPDAPEKGKEITLPEEGLIFFAGVAEKDGKLVTNGGRVLHCMGTGETKEEARRKAYELAEKVHFEGKTYRRDIAL” here?
**A.** soluble

**Q.** For “MGSDKIHHHHHHMKDYTYSVTEINEYIKDLIEGDPYLTNVSVYGEISGVRPRKGHIFFSLVEENARLECVIFGGDNMGIRLQEGRMALVEGSVSVYIPHGTYRFICSNVRYLDQAGMYQIKFETTLKKLLEEGLLSRPKKTVPRFPRKIGIITSRDSAALQDVIRTARERKAPIEIYVFHTSVQGDSAREELIKALRKANEYDLDLVMIVRGGGSKEDLWVFNEEDVIREILRLRHPVVTGIGHEIDRVIADFVADVSMHTPTGAAEYVIPDASEIHEDLDSFFEKLITSLSNRFDMEERRLETLYFRLRMIGRRKLELNEFKIERVKELAAKLRKKLMDYFEHNQKKLDSLGRMLESLNPLRPLERGFVLVKKDEKIVKESTDLKRGDVVSLVFKDGTKKAQVIG”, which “soluble on expression in E. coli” value is on record?
**A.** not soluble

**Q.** Which “soluble on expression in E. coli” value does the source give for “MGSDKIHHHHHHMKEHEVVGIDRTPCSTADVVGDIRDTALLAEALEGVEVIIHTAALHAPHVGLVPGDEFEEINIKATEQLALMGVKKGIKHFVFTSTTALYGFASTPAGRAGWVDETVMPRPKTIYHHSKIKAEQLLENISSSFDLPVTVLQMSRCFPEPVNLMAVYRLTRGIDARDVARAHACAVERRLSGFRRYIISGKTPFSKACCERLYRDANDVIREAIPGLAESFAVRGWSMPQSLDRVYDSSLAQHELGWQPKYGYESVLSLLDNESAEVLPMKSQS” here?
**A.** not soluble

**Q.** Which “soluble on expression in E. coli” value does the source give for “MGSDKIHHHHHHMKEKLRLYHTNDLHSHFENWPKIVDYIEQKRKEHQSDGEETLVFDIGDHLDRFQFVTEATFGKANVDLLNRLHIDGAAIGNNEGITLPHEELAALYDHAEFPVIVSNLFDKNGNRPSWAVPYHIKSLKNGMSIAFLGVTVPYYPVYDKLGWTVTDALESIKETILEVKGQADIIVLLSHLGILDDQAVAEAVPEIDVILESHTHHLLEDGQVVNGVLLASAEKYGHYVGCVEITVDSVQRSINSKTASVQNMAEWTGESAETKAFLNEKEREAEEKLSDAVAELAQDAEVKWFEESELPLLLAYALKEWCETDISMVNSGVILGPLKAGPVTKLDLHRICPHPINPVAVRLTGEELKETIVHAASEQMEQLRIKGLGFRGEVMGKMVYAGVEVETKRLDDGITHVTRITLNGEDIEKHKQYSVAVLDMFTLGKLFPLIRDAAEKEYFMPEFLRDLLAWKLAQ” here?
**A.** not soluble

**Q.** With “MGSDKIHHHHHHMKEKVVLAYSGGLDTSVILKWLCEKGFDVIAYVANVGQKDDFVAIKEKALKTGASKVYVEDLRREFVTDYIFTALLGNAMYEGRYLLGTAIARPLIAKRQVEIAEKEGAQYVAHGATGKGNDQVRFELTYAALNPNLKVISPWKDPEFLAKFKGRTDLINYAMEKGIPIKVSKKRPYSEDENLMHISHEAGKLEDPAHIPDEDVFTWTVSPKDAPDEETLLEIHFENGIPVKVVNLKDGTEKTDPLELFEYLNEVGAKNGVGRLDMVENRFIGIKSRGVYETPGATILWIAHRDLEGITMDKEVMHLRDMLAPKFAELIYNGFWFSPEMEFLLAAFRKAQENVTGKVTVSIYKGNVMPVARYSPYSLYNPELSSMDVEGGFDATDSKGFINIHALRLKVHQLVKKGYQR” as the sequence, how does the “soluble on expression in E. coli” value read?
**A.** soluble

**Q.** For “MGSDKIHHHHHHMKERILQEIKTRVNRKSWELWFSSFDVKSIEGNKVVFSVGNLFIKEWLEKKYYSVLSKAVKVVLGNDATFEITYEAFEPHSSYSEPLVKKRAVLLTPLNPDYTFENFVVGPGNSFAYHAALEVAKHPGRYNPLFIYGGVGLGKTHLLQSIGNYVVQNEPDLRVMYITSEKFLNDLVDSMKEGKLNEFREKYRKKVDILLIDDVQFLIGKTGVQTELFHTFNELHDSGKQIVICSDREPQKLSEFQDRLVSRFQMGLVAKLEPPDEETRKSIARKMLEIEHGELPEEVLNFVAENVDDNLRRLRGAIIKLLVYKETTGKEVDLKEAILLLKDFIKPNRVKAMDPIDELIEIVAKVTGVPREEILSNSRNVKALTARRIGMYVAKNYLKSSLRTIAEKFNRSHPVVVDSVKKVKDSLLKGNKQLKALIDEVIGEISRRALSG”, which “soluble on expression in E. coli” value is on record?
**A.** not soluble

**Q.** Which “soluble on expression in E. coli” value does the source give for “MGSDKIHHHHHHMKETEARAAEALRRLLENIPILHVEGIDAEAVSGDWVPDLIARLVVDGKRHLLICEYKSSGQPRFARSALLELRNYVAQRAPEATPVFIAPYISPVVRKMCEEKGVGYLDLEGNARIAFGGVFIERMVTDKPVVEQRELRSLFRPKSAQVLRAMLRDPGRAWRVTELSEISGVSLGHVSNVRTGLIDREWARASDDGLILSEPDALLDAWRDSYAAPAGERSSFYTPLHGSALEDAARSVLRVEDTRGRAAFASFSAAQWLAPYGRTGTHYFFADEDGLRKLQAALKLAPALKGENVIVTVPKDLGLLADTVEPAPGAICTSPVQTYLDLSIAGERGAEAADHLRQERLSWPR” here?
**A.** not soluble
